The record followed here is patent publication US20210155689A1 (SHANGHAI PHARMAEXPLORER, published 2021).

The target in experiment [1] is T1, LAG-3-hFc protein (human LAG-3 extracellular region with hFc tag) (human, UniProt P18627 23-450).
T1 construct: also called hLAG-3-hFc; LAG-3 protein; not shown: human IgG Fc fragment (hFc) of the pCpC vector
T1 sequence: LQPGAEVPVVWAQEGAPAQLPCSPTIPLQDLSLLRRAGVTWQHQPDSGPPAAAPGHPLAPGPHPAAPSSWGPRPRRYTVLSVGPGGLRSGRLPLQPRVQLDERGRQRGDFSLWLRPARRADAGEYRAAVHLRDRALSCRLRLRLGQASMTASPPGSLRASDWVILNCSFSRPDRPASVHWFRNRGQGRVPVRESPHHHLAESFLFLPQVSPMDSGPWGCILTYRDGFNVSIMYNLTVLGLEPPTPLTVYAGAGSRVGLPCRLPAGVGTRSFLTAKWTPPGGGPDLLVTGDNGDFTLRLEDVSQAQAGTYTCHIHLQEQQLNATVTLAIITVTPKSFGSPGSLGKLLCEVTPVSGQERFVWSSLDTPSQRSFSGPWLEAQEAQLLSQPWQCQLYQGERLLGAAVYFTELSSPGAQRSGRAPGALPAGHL
The experiment is described as follows: FACS, inhibition of LAG-3-hFc binding to MHC II on Raji cells, antibody 200.000 nM. On the procedure:
(§1) The FACS reaction plate incubating the Raji cells was centrifuged to discard the supernatant. The above mixture was added as 100 μl per well to Raji cells and incubated on ice for 1-2 hours. The plate was washed twice with blocking solution (PBS, 2% fetal bovine serum) by centrifugation, added with 100 microliters of fluorescent (Alexa 488)-labeled secondary antibodies per well, and incubated on ice for 1.0 hours. The plate was washed 2-3 times by centrifugation with blocking solution (PBS, 2% fetal bovine serum), added with 100 microliters of PBS per well to suspend cells, and detected using FACS (FACS Calibur, BD) and the results were analyzed. Wherein, the IgG control was murine IgG, and the data in the table is the inhibition rate (%).

In experiment [2] the target is T1, LAG-3-hFc protein (human LAG-3 …). The experiment is described as follows: FACS, inhibition of LAG-3-hFc binding to MHC II on Raji cells, antibody 2.469 nM. On the procedure:
as §1

For experiment [3], the target named is T2, human LAG-3 on cells (HEK293-hLAG-3 stable cell line) (human, UniProt P18627 23-525).
T2 sequence: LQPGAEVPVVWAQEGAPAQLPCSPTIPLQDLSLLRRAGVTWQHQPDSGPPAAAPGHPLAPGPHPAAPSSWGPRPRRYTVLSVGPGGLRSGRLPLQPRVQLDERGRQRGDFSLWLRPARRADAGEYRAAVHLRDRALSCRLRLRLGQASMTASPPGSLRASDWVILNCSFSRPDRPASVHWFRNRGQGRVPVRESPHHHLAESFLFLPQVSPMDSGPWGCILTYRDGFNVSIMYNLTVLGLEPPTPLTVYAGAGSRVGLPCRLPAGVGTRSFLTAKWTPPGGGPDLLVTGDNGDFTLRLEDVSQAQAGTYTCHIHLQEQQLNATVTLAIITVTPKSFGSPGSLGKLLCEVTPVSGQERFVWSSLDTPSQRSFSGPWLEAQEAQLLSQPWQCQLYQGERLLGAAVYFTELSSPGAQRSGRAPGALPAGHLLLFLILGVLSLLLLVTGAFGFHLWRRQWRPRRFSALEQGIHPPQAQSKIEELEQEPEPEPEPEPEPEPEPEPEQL
The experiment is described as follows: cell-based or functional assay.

Experiment [4] addresses T3, mouse LAG-3 protein with hFc tag (mLAG-3-hFc protein) (mouse; human, UniProt Q61790 24-442).
T3 construct: Made in HEK293 cells; also called mouse LAG-3 extracellular domain protein; not shown: human IgG Fc fragment (hFc) of the pCpC vector
T3 sequence: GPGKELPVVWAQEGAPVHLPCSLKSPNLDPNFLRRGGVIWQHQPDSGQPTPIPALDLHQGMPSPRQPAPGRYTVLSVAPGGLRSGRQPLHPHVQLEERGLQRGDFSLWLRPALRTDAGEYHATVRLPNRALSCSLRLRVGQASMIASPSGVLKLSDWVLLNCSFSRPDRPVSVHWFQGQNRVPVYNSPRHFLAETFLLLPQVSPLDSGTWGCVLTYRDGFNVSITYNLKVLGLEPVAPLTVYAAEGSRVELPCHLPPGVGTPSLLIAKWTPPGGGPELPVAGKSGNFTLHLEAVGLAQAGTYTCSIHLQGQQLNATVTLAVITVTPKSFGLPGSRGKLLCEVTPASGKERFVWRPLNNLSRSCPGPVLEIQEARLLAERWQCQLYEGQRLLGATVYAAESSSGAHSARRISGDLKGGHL
The experiment is described as follows: ELISA, mLAG-3-hFc coated. On the procedure: (§2) The plate was sealed with plastic film and incubated overnight at 4° C. The plate was washed 2 times with the plate washing solution (PBS+0.01% Tween20) on the next day, and added with the blocking solution (PBS+0.01% Tween20+1% BSA) and blocked at room temperature for 1-2 hours. The blocking solution was poured out, and the plate was added with 50-100 μl of the antibody sample to be tested to each well, incubated at 37° C. for 1-2 hours, and washed 2-3 times with a plate washing solution (PBS+0.01% Tween20). HRP (horseradish peroxidase) labeled secondary antibody was added, and the plate was incubated at 37° C. for 1-2 hours, and washed 2-3 times with a plate washing solution (PBS+0.01% Tween20). 100 μl of TMB substrate was added to each well. After incubated at room temperature for 15-30 minutes, the plate was added with 100 μl of stop solution (1.0N HCl) to each well.

For experiment [5], the target named is T4, human LAG-3 protein with hFc tag (hLAG-3-hFc protein) (human, UniProt P18627 23-450).
T4 construct: also called immunogen 1; LAG-3 extracellular domain protein; not shown: human IgG Fc fragment (hFc) of the pCpC vector
T4 sequence: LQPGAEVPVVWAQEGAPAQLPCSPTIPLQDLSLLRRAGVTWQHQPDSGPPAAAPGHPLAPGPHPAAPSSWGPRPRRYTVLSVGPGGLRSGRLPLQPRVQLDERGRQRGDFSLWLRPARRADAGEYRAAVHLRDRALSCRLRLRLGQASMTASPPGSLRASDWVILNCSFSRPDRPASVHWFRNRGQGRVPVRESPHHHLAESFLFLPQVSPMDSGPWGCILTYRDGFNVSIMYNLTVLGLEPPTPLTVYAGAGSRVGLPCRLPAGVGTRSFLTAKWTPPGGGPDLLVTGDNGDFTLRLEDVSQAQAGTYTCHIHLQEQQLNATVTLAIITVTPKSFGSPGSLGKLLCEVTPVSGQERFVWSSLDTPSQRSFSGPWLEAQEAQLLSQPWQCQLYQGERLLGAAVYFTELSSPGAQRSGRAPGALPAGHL
The experiment is described as follows: ELISA, hLAG-3-hFc coated; 6.6667 nM. Here is the method: as §2
On the technique in general: An ELISA detects its analyte on a solid surface through an enzyme-linked reagent.

The target in experiment [6] is T3, mouse LAG-3 protein with hFc tag …. The experiment is described as follows: ELISA, mLAG-3-hFc coated; 6.6667 nM. Here is the method:
as §2

B1: 409D4E10 mouse-human chimeric antibody (antibody, V domains shown)
VH: QVQLQQSGAELVRPGASVTLSCKASGNTFTDYEMHWVKQTPVHGLEWIGATDPETDNTAYNQKFKGKAILTTDKSSSTAYMELRSLTSEDSAVYYCITSGWNDWGQGTSLTVSS
VL: DIKMTQSPSSMYASLGERVTITCKASQDINSYLSWFQQKPGKSPKTLIYRANRLLDGVPSRFSGSGSGQDYSLTISSLEYEDMGIYYCLQYNEFPYTFGGGTKLEIK
notes: also called mAb112-409D4E10
Turning to B1, the “Inhibition rate (%)” value in experiment [1] came to 95.7%. Further, the “Inhibition rate (%)” value in experiment [2] came out at 56.7%. Besides, in experiment [3], the “IL-2 production, SEB-dependent PBMC stimulation test, 0.0032 ug/ml, N = 1” value amounted to 1660 pg/mL; the “IL-2 production, SEB-dependent PBMC stimulation test, 0.0032 ug/ml, N = 2” value stood at 1240 pg/mL; the “IL-2 production, SEB-dependent PBMC stimulation test, 0.016 ug/ml, N = 1” value turned out to be 1250 pg/mL; the “IL-2 production, SEB-dependent PBMC stimulation test, 0.016 ug/ml, N = 2” value was 1450 pg/mL. Also, in experiment [3], the “IL-2 production, SEB-dependent PBMC stimulation test, 0.08 ug/ml, N = 1” value amounted to 1630 pg/mL; the “IL-2 production, SEB-dependent PBMC stimulation test, 0.08 ug/ml, N = 2” value is 1420 pg/mL; the “IL-2 production, SEB-dependent PBMC stimulation test, 0.4 ug/ml, N = 1” value turned out to be 2170 pg/mL; the “IL-2 production, SEB-dependent PBMC stimulation test, 0.4 ug/ml, N = 2” value was 2160 pg/mL. In addition, in experiment [3], the “IL-2 production, SEB-dependent PBMC stimulation test, 2 ug/ml, N = 1” value was 2770 pg/mL; the “IL-2 production, SEB-dependent PBMC stimulation test, 2 ug/ml, N = 2” value came out at 1940 pg/mL; the “IL-2 production, SEB-dependent PBMC stimulation test, 10 ug/ml, N = 1” value turned out to be 2740 pg/mL; the “IL-2 production, SEB-dependent PBMC stimulation test, 10 ug/ml, N = 2” value was found to be 2100 pg/mL.

B2: 405B8H3 (LAG-3 mouse-human chimeric antibody) (antibody, V domains shown)
VH: QVQLQQSGAELVRPGASVTLSCKASGYTFTDYEMHWVKQTPVHGLEWIGATDPETGNSAYNQKFKGKAIMTADKSSSTAYMELRSLTSEDSAVYYCISTGWNDWGQGTSLTVSS
VL: DIKMTQSPSSMYASLGERVTITCKASQDINSYLSWFQQKPGKSPKTLIYRADRLLDGVPSRFSGSGSGQDYSLTISSLEYGDMGIYYCLQYDEFPYTFGGGTKLEIK
notes: also called mouse-human chimeric antibody 405B8H3
As for B2, the binding result in experiment [4] is on record as “no binding (tested: 66.6670 nM)”. In addition, the OD450 in experiment [5] came out at 3.54 OD450; in experiment [6], 0.34 OD450.

B3: 105F1E10 (LAG-3 mouse-human chimeric antibody) (antibody, V domains shown)
VH: EVQLQQSGPELVKPGASVKMSCRASGYTFTDFKMHWMKQSHGKSLEWIGYIAPNNGGTAYNQKFRGKATLTVNESSNTAYMELRSLTSEDSAVYYCVDWDDVDYWGQGTTLTVSS
VL: DIKMTQSPSSMYASLGERVTITCKASQDINSYLSWFQQKSGKSPKTLIYRANRLVDGVPSRFSGSGSGQDYSLTISSLEYEDMGIYYCLQYVEFPLTFGAGTKLELK
Take B3: the binding result in experiment [4] is “no binding (tested: 66.6670 nM)”. Further, the OD450 came to 3.53 OD450 in experiment [5] and 0.14 OD450 in experiment [6].

B4: 409D4E10 (LAG-3 mouse-human chimeric antibody) (antibody, V domains shown)
VH: QVQLQQSGAELVRPGASVTLSCKASGNTFTDYEMHWVKQTPVHGLEWIGATDPETDNTAYNQKFKGKAILTTDKSSSTAYMELRSLTSEDSAVYYCITSGWNDWGQGTSLTVSS
VL: DIKMTQSPSSMYASLGERVTITCKASQDINSYLSWFQQKPGKSPKTLIYRANRLLDGVPSRFSGSGSGQDYSLTISSLEYEDMGIYYCLQYNEFPYTFGGGTKLEIK
For the molecule B4, the binding result in experiment [4] was “no binding (tested: 66.6670 nM)”. The OD450 amounted to 3.73 OD450 in experiment [5] and 0.23 OD450 in experiment [6].

B5: 409B11E12 (LAG-3 mouse-human chimeric antibody) (antibody, V domains shown)
VH: QVQLQQSGAELVRPGASVTLSCKASGYTFTDYEMHWVKQTTVHGLEWIGATDPETSYSAYNQKFKGKAILTADKSSSTAYMELRSLTSEDSAVYYCIATGWNDWGQGTSLTVSS
VL: DLKMTQSPSSMYASLGERVTITCKASQDINSYLSWFQQKPGKSPKTLIYRANRLLDGVPSRFSGSGSGQDYSLTISSLEYEDMGIYYCLQYDEFPYTFGGGTKLEIK
Consider B5, for which, in experiment [4], the binding result is reported as “no binding (tested: 66.6670 nM)”. The OD450 in experiment [5] was 3.64 OD450; in experiment [6], 0.31 OD450.

B6: 556F6B8 (LAG-3 mouse-human chimeric antibody) (antibody, V domains shown)
VH: RVQLKQSGPGLVQPSQSLSITCTVSGFSLIKYGVHWVRQSPGEGLEWLGVIWRGGITDYNAAFMSRLSITKDNSKSQVFFKMNSLQADDTAIYYCAKWDGPLAMDYWGQGTSVTVSS
VL: DIVMTQSHKFLSTSVGDRVSITCKASQDVGTTVAWYQQKPGQSPKLLIYWASTRHTGVPDRFTGSGSGTDFTLTISNVQSEDLADYFCQQYSSYPYTFGGGTKLEIK
notes: also called 556F8B8
Consider B6, for which the binding result in experiment [4] is “no binding (tested: 66.6670 nM)”. The OD450 in experiment [5] is 3.73 OD450; in experiment [6], 0.36 OD450.
